Data from article doi:10.1101/2023.06.06.543969.

Legend:
Assay in all cases: BLI
[1] = molecular target: His-tagged HIV Env MPER peptide
[2] = molecular target: biotinylated SARS-CoV-2 fusion peptide
SARS-CoV-2 spike = molecular target: SARS-CoV-2 spike
[3] = molecular target: HCV E2 envelope glycoprotein
[4] = molecular target: HC84.26.5D Fab VH G50R (human)

**Q.** 4E10 Fab (WT) VH:G50R was tested. Which ratio to parent [1] did it give?
**A.** Its ratio to parent is greater than 100.

**Q.** COV44–62 Fab (WT) VH:R50W was tested. Which ratio to parent [2] did it give?
**A.** Its ratio to parent is greater than 100.

**Q.** How did the ratio to parent (SARS-CoV-2 spike) turn out when COVOX-316 VH:W50R was run?
**A.** The ratio to parent was greater than 100.

**Q.** With HC33.8 VH:S52Y as the substance, how does the ratio to parent [3] read?
**A.** The ratio to parent was greater than 100.

**Q.** With HCV1 VH:W52S as the substance, how does the ratio to parent [3] read?
**A.** Its ratio to parent is greater than 100.

**Q.** “HCV (isolate H77) E2 domain (domain or fragment)” was tested. Which fold change in KD against the wild type [4] did it give?
**A.** The fold change in KD against the wild type was 6 fold.

**Q.** How did the ratio to parent (SARS-CoV-2 spike) turn out when P008_60 VH:S52R was run?
**A.** Its ratio to parent is greater than 100.
